{"source": "patent US12648996B2", "about": "“RNA aptamers and uses thereof” (UNIVERSITY OF MIAMI, priority 2019, dated 2026)", "molecules": {"B1": {"name": "aptamer 6: 2'Fluoro-RNA aptamer, SEQ ID NO: 6, specific for tumor infiltrating myeloid cells (nucleic acid)", "chain": "GGAGGACGAUGCGGCAGGUGCGGGAUCUAAUGCGUAGACAGCCAUAUACUGACACAGACGACUCGCUGAGGAUCCGAGA", "modifications": "2'-fluoro modified RNA, modified positions not given here, Cy3-labelled for binding assays"}, "B2": {"name": "aptamer 11: 2'Fluoro-RNA aptamer, SEQ ID NO: 11, specific for tumor infiltrating myeloid cells; ligand vimentin (nucleic acid)", "chain": "GGAGGACGAUGCGGGGAAGCAACACUUAGUCGCGAUUGAUACGUGCGCAGUCAUCAGACGACUCGCUGAGGAUCCGAGA", "modifications": "2'-fluoro modified RNA, modified positions not given here, Cy3-labelled for binding assays", "notes": "ligand vimentin"}, "B3": {"name": "aptamer 3: 2'Fluoro-RNA aptamer, SEQ ID NO: 3, specific for tumor infiltrating myeloid cells; ligand ANXA4 (nucleic acid)", "chain": "GGAGGACGAUGCGGAUUACCAACUUGAACGCCGAGAGUGUGGUCACGUGUUCUGCAGACGACUCGCUGAGGAUCCGAGA", "modifications": "2'-fluoro modified RNA, modified positions not given here, Cy3-labelled for binding assays", "notes": "ligand ANXA4"}, "B4": {"name": "aptamer 14: 2'Fluoro-RNA aptamer, SEQ ID NO: 14, specific for tumor infiltrating myeloid cells (nucleic acid)", "chain": "GGAGGACGAUGCGGUGUACACUGAUUGCCUUUGUGUUAUGAGCGACAGAUCUGCCAGACGACUCGCUGAGGAUCCGAGA", "modifications": "2'-fluoro modified RNA, modified positions not given here, Cy3-labelled for binding assays"}}, "key": {"[1]": {"test_system": "4T1 mammary carcinoma", "test": "Therapeutic efficacy and toxicity in 4T1 bearing BALB/c mice", "assay_type": "in vivo, mouse", "method": "FIGS. 7A-7C. TIMC-specific aptamers increase doxorubicin therapeutic index. […] Treatment was repeated 2 and 6 days later. […] Weight loss as measure of toxicity is reported. […] Survival was monitored.\nAptamer-Doxorubicin treatment: Aptamer-doxorubicin was prepared by making DNA template with the appropriate aptamer followed by a GC-rich primer sequence downstream (GC rich Sul3′, FIG. 11. From this template, RNA was transcribed and purified as described above. Doxorubicin (Sigma) was mixed with the RNA sequence as needed. Doxil (ALZA corporation) was purchased through the University of Miami pharmacy.\nBALB/c mice were injected IV with the 4T1 luciferase thy1.1 tumor cell line. Treatment was started when tumors reached 5 mm of diameter and repeated 2 and 6 days later. Tumor growth and mice weight was reported. Mice were evaluated at least 3 times a week and humanely euthanized when tumor size index reached 150 mm^2 or if they lose >20% of initial weight due to chemotherapy or tumor growth in compliance with the IACUC policy and animal protocol. Data are expressed as tumor size index defined as the product of the main diameter with the perpendicular one.\nNext, the therapeutic efficacies of doxorubicin delivered by TIMC-specific aptamers was compared by PEGylated liposomes (Doxil, the first clinically available nanoparticle that became the gold standard for doxorubicin treatment (34, 35)), and as unconjugated molecules. Briefly, 4T1 bearing BALB/c mice were treated with unconjugated DOX at dose high, or low dose, or with low doses of DOX conjugated to the TIMC-specific aptamer, or with Doxil (low dose—0.35 mg/kg). Treatment was repeated 2 and 6 days later. As additional controls, mice were treated with unconjugated aptamers, irrelevant aptamers conjugated with doxorubicin, or left untreated."}, "[2]": {"test_system": "TIMC from 4T1, CT26, RENCA, B16LU8, MCA203, E0771 tumors", "test": "Staining of single cell suspensions from tumor, bone marrow, spleen and lungs in multiple mouse tumor models", "assay_type": "cell-based", "details": "BALB/c (4T1, CT26, RENCA) and C57Bl/6 (B16LU8, MCA203, E0771) tumor models", "description": "(§1) Flow cytometry: Aptamers were labeled with Cy3 using the Silencer siRNA Labeling Kit—Cy3 (Ambion) and 37 pmoles were used to label 5×10^6 cells unless otherwise specified. In some experiments biotinylated aptamers were labelled with streptavidin conjugated with Alexa Fluor 647 or Alexa Fluor 750 and purified from unbound aptamer by Ultra-4 centrifugal filters, […] (Millipore).\n(§2) Dead cells were excluded by the analysis by using 4′,6′-diamidino-2-phenylindole (DAPI; Sigma) or Live/Dead dye (Invitrogen). Samples were read on a LSR2 equipped with 405 nm, 488 nm, 532 nm, and 635 nm lasers (BD Bioscience). Data were analyzed using FCS6 express software (Denovo-Software).\nThe binding properties of monoclonal RNA aptamers 3, 6, 11 and 14 were evaluated in other tumor models. Aptamers 3, 6, 11, or 14 single cell suspensions were stained from tumor, bone marrow, spleen, and lungs of BALB/c mice bearing the 4T1 mammary carcinoma, the CT26 colon carcinoma, or the RENCA renal carcinoma. Similar analysis was performed on single cell suspensions from C57Bl/6 mice bearing B16LU8 melanoma, MCA203 fibrosarcoma or E0771 mammary carcinoma."}, "[3]": {"test_system": "tumor infiltrating myeloid cells (4T1 tumor)", "test": "Flow cytometry of Cy3-labelled monoclonal aptamers on single cell suspensions from tumor and spleen of 4T1 bearing mice", "assay_type": "cell-based, mouse", "details": "tumor and spleen of 4T1 challenged mice; splenic MDSCs and CD11b- cells p>0.05", "description": "FIGS. 2A-C. […] FIG. 2A) Single cell suspensions from spleens and tumors of mice pooled from 3 mice bearing the 4T1 tumor (0.5 cm in diameter) were labelled with antibodies against CD11b, Ly6C, Ly6G and the 15 Cy3-labelled monoclonal aptamers identified by APTANI. Data derived from n=5 biological replica and derived from n=2 independent experiments. Aptamers 3 (SEQ ID NO: 3), 6 (SEQ ID NO: 6), 11 (SEQ ID NO: 11), and 14 (SEQ ID NO: 14) were chosen for further analysis and are in bold. *=P<0.001 by one-way ANOVA and post-hoc Holm-Sidak comparisons versus irrelevant aptamer. […] FIG. 2B) Secondary structure of aptamers 3 (SEQ ID NO: 3), 6 (SEQ ID NO: 6), 11 (SEQ ID NO: 11), and 14 (SEQ ID NO: 14). Binding motifs identified by APTANI are underlined in black. Fluorinated nucleotides are highlighted in gray. FIG. 2C) An equimolar mixture of the aptamers increases the specificity for tumor infiltrating myeloid cells. Pooled single cell suspension of tumor or spleen from 4T1 bearing mice were labeled with aptamers 3 (SEQ ID NO: 3), 6 (SEQ ID NO: 6), 11 (SEQ ID NO: 11), and 14 (SEQ ID NO: 14), or equimolar mixtures of each aptamer and analyzed by FACS. Data derived from n=3 independent experiments.\nas §1, §2\nThese 15 aptamers were tested by flow cytometry against single cell suspensions from tumor and spleen of mice challenged with the 4T1 tumor (FIG. 2A).\nNext, whether an equimolar mixture of aptamers 3, 6, 11 and 14 was more efficient in recognizing TIMC as compared to each individual aptamer was evaluated."}, "[4]": {"test": "Aptamer-based immunoprecipitation and mass spectrometry (target identification)", "details": "immunoprecipitation, mass spectrometry", "method": "(§3) FIG. 4A-4E. Characteristics of aptamers that preferentially recognize tumor infiltrating myeloid cells. FIG. 4A) Affinity of the aptamers for IL4 treated MSC2 cells was determined by FACS. Putative targets (ANXA4 and VIM) were identified via aptamer-based immunoprecipitation, SDS page, and mass spec analysis. Kds against ligands was determined by FACS against recombinant protein conjugated to epoxy beads. FIG. 4B) Epoxy beads conjugated with ANXA4 or irrelevant protein were stained with Cy3-labelled aptamer 3 or irrelevant aptamer and analyzed by FACS. FIG. 4C) Epoxy beads conjugated with vimentin or irrelevant protein were stained with Cy3-labelled aptamer 11 or irrelevant aptamer and analyzed by FACS. FIG. 4D) ANXA4 competitive assay. 5×10^5 IL4 treated MSC2 were stained with aptamer 3 in the presence or in the absence of recombinant ANXA4. FIG. 4E) MCS2 cells were transfected via the 4PD nanoparticle with shRNA against vimentin or with a scrambled shRNA. 4 days later cells were stained with Cy3-labelled aptamer 11 and DAPI. Pa=One-way ANOVA p value. Data derived from n=2 independent experiments.\nThe specificity of aptamer 3 for ANXA4 and aptamer 11 for vimentin were tested by competitive experiments (FIG. 4D) and with validated shRNA (29) (FIG. 4E), respectively."}, "[5]": {"test_system": "4T1 tumors and tissues arrays from naïve mice", "test": "Immunofluorescence microscopy on 4T1 tumors and tissues arrays from naïve mice", "set-up": "species or system mouse", "method": "Immunofluorescence microscopy and Image cytometry: Fresh frozen tissue and tissues microarrays (AMSBIO) were fixed in 10% neutral-buffered formalin (BDH) for 15′ at RT, incubated with dextran sulfate sodium/PBS (1:2 m/V—Pharmacia biotech) for 30′ and washed with PBS. Tissues were then stained with Cy3-labelled aptamer (10 ug/ml) in PBS for 30′, masked with 2% BSA, and counterstained with antibodies and/or DAPI.\nSpecificity was further evaluated by immunofluorescence microscopy using 4T1 tumors and tissues arrays from naïve mice."}, "[6]": {"target": "T1, vimentin (VIM) (Mus musculus, UniProt P20152)", "T1 construct": "purchased myBiosource", "T1 sequence (P20152 whole entry)": "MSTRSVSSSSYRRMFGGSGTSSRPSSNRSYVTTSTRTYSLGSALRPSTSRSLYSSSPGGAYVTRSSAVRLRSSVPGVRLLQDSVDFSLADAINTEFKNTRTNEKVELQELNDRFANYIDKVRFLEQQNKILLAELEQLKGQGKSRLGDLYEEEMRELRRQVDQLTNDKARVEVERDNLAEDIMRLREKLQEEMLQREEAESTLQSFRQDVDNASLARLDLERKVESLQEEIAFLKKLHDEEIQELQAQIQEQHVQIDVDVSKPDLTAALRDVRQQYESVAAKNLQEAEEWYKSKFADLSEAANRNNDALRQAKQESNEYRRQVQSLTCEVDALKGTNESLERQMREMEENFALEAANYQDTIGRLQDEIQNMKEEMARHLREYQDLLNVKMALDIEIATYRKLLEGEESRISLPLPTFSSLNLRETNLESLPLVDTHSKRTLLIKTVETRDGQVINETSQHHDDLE", "test": "FACS of epoxy beads conjugated with recombinant vimentin", "assay_type": "binding", "details": "beads loaded with relevant or irrelevant recombinant proteins", "method": "as §3\n(§4) FIG. 8A and FIG. 8B. Affinity of aptamers #3 (SEQ ID NO: 3), #6 (SEQ ID NO: 6), #11 (SEQ ID NO: 11) and #14 (SEQ ID NO: 14) for IL4 treated MSC2 or their putative ligand. […] Binding was evaluated by FACS. […] Binding was evaluated by FACS. […]"}, "[7]": {"target": "T2, annexin A4 (ANXA4) (Mus musculus, UniProt P97429)", "T2 construct": "purchased myBiosource", "T2 sequence (P97429 1-319)": "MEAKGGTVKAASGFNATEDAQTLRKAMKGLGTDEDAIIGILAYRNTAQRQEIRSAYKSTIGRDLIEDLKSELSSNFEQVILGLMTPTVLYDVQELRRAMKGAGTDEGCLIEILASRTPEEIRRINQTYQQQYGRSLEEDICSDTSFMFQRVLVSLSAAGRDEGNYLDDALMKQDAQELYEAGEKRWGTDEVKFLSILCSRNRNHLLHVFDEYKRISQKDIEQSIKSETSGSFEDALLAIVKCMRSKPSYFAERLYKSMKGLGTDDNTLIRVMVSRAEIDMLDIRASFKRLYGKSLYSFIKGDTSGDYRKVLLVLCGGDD", "test": "FACS of epoxy beads conjugated with recombinant ANXA4", "assay_type": "binding", "details": "beads loaded with relevant or irrelevant recombinant proteins", "method": "as §3, §4"}}, "data": [{"molecule": "COc1cccc2c1C(=O)c1c(O)c3c(c(O)c1C2=O)C[C@@](O)(C(=O)CO)C[C@@H]3O[C@H]1C[C@H](N)[C@H](O)[C@H](C)O1", "note": "[free doxorubicin, doxorubicin]", "values": [{"measurement": "toxicity (body weight loss)", "setting": "[1]; free DOX high dose 3.5 mg/kg, DOX-aptamer 0.35 mg/kg", "value": "significant body weight loss"}, {"measurement": "treatment related mortality", "setting": "[1]; high doses of free doxorubicin", "value": 15, "unit": "%"}, {"measurement": "anti-tumor effect", "setting": "[1]; i.v., repeated 2 and 6 days later, free DOX high dose 3.5 mg/kg, Doxil and DOX-aptamer low dose 0.35 mg/kg", "value": "No significant anti-tumor effect"}]}, {"molecule": "B1", "values": [{"measurement": "recognition of TIMC", "setting": "[2]", "value": "able to recognize TIMC"}, {"measurement": "specificity for tumor infiltrating vs splenic myeloid cells", "setting": "[3]", "value": "specific for tumor infiltrating myeloid cells"}, {"measurement": "putative target", "setting": "[4]", "value": "No targets have been identified"}, {"measurement": "staining of tissues from naïve mice", "setting": "[5]", "value": "showed binding for epithelial cells in the uterus and low binding for pancreatic acinar tissue"}]}, {"molecule": "B2", "values": [{"measurement": "recognition of TIMC", "setting": "[2]", "value": "able to recognize TIMC"}, {"measurement": "specificity for tumor infiltrating vs splenic myeloid cells", "setting": "[3]", "value": "specific for tumor infiltrating myeloid cells"}, {"measurement": "putative target", "setting": "[4]", "value": "vimentin (VIM P20152)"}, {"measurement": "specificity for vimentin protein", "setting": "[6]", "value": "confirmed the specificity"}]}, {"molecule": "B3", "values": [{"measurement": "recognition of TIMC", "setting": "[2]", "value": "able to recognize TIMC"}, {"measurement": "specificity for tumor infiltrating vs splenic myeloid cells", "setting": "[3]", "value": "specific for tumor infiltrating myeloid cells"}, {"measurement": "putative target", "setting": "[4]", "value": "annexin A4 (ANXA4 isoform X1 P97495)"}, {"measurement": "staining of tissues from naïve mice", "setting": "[5]", "value": "recognized hepatocytes at low intensity"}, {"measurement": "specificity for annexin protein", "setting": "[7]", "value": "confirmed the specificity"}]}, {"molecule": "B4", "values": [{"measurement": "recognition of TIMC", "setting": "[2]", "value": "able to recognize TIMC"}, {"measurement": "specificity for tumor infiltrating vs splenic myeloid cells", "setting": "[3]", "value": "specific for tumor infiltrating myeloid cells"}, {"measurement": "putative target", "setting": "[4]", "value": "No targets have been identified"}, {"measurement": "staining of tissues from naïve mice", "setting": "[5]", "value": "recognized intestinal villi and seems to show a nuclear staining of cerebellum, pancreatic acinar tissue, stomach and spleen"}]}]}
